For this data set, the target named is T1, cytokinin oxidase activity (Zea mays, UniProt Q9T0N8).
T1 construct: The exon fusion (containing ckx1 and including its putative signal peptide) was ligated into the Pml1/BsmB1 restriction sites of pPICZ-A; made in house; host or cells: Pichia pastoris X33 (transformant PPckx1, plasmid pROM24); activity measured in the culture supernatant
Nature of the data set: Cytokinin oxidase activity of ckx1 expressed in Pichia pastoris. The class given is biochemical. The text has this: Two assays were used to screen purification steps for cytokinin oxidase activity. The first was the Schiff base formation assay measuring the production of dimethylallylaldehyde from iP, as described by Liberos-Minotta (1995), which was used up through the DEAE column step. A second assay, developed by the applicant, was used in the remaining purification steps. In this assay, the transfer of reducing equivalents from isopentenyladenine to dichlorophenolindophenol (DCPIP), catalyzed by ckx1, allows the observance of reactivity by measuring absorbance change at 590 nm. In a final volume of 250 μl, the assay contains: 100 mM Phosphate buffer, pH 7.0; 1.0 mM EDTA; 0.05 mM DCPIP; 0.1 mM iP; 100 μg/ml BSA; and the sample tested. After the addition of the enzyme, absorbance change is read at 590 nm for 10 minutes.
Removal of the right-most intron was accomplished by splicing by overlap extension (Horton et al., 1989) and for the left-most intron by ligation of suitable restriction fragments. The resulting intronless cassette was inserted into the Pichia expression vector pPICZ-A to give the expression construct pROM24 (FIG. 9). This construct was introduced into the requisite Pichia host and grown in the presence of methanol to induce ckx1 expression. Appropriate control Pichia lines (containing. the vector alone or a recombinant expressing human serum albumin) were grown in parallel. […]

T1 sequence (Q9T0N8 19-534): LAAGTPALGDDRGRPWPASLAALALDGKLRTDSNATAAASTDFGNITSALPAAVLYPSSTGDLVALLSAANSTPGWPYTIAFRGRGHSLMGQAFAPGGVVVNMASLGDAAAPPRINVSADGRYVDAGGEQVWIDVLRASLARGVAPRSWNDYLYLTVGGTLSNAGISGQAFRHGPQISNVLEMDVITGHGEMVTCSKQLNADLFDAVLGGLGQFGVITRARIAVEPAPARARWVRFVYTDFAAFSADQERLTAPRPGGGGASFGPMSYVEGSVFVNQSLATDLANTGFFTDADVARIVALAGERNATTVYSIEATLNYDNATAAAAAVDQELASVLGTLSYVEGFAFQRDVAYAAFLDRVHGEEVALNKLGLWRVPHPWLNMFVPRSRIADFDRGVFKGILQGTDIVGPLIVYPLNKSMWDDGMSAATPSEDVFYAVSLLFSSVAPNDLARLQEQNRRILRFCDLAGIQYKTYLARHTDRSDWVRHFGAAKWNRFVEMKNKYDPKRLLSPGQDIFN

B1: ckx1: purified plant cytokinin oxidizing enzyme from Zea mays (SEQ. ID NO. 1); here expressed recombinantly in Pichia pastoris (protein)
chain: MAVVYYLLLAGLIACSHALAAGTPALGDDRGRPWPASLAALALDGKLRTDSNATAAASTDFGNITSALPAAVLYPSSTGDLVALLSAANSTPGWPYTIAFRGRGHSLMGQAFAPGGVVVNMASLGDAAAPPGINVSADGRYVDAGGEQVWIDVLRASLARGVAPRSWNDYLYLTVGGTLSNAGISGQAFRHGPQISNVLEMDVITGHGEMVTCSKQLNADLFDAVLGGLGQFGVITRARIAVEPAPARARWVRFVYTDFAAFSADQERLTAPRPGGGGASFGPMSYVEGSVFVNQSLATDLANTGFFTDADVARIVALAGERNATTVYSIEATLNYDNATAAAAAVDQELASVLGTLSYVEGFAFQRDVAYAAFLDRVHGEEVALNKLGLWRVPHPWLNMFVPRSRIADFDRGVFKGILQGTDIVGPLIVYPLNKSMWDDGMSAATPSEDVFYAVSLLFSSVAPNDLARLQEQNRRILRFCDLAGIQYKTYLARHTDRSDWVRHFGAAKWNRFVEMKNKYDPKRLLSPGQDIFN
modifications: Zea mays
notes: here expressed recombinantly in Pichia pastoris
On to B1, for which the “cytokinin oxidase activity in cell lysates” value (Pichia cell lysates, at any time during the growth curve) was “No cytokinin oxidase activity”. In addition, the “cytokinin oxidase activity in growth medium” value (Pichia culture supernatant, methanol induction) is on record as “high levels of cytokinin oxidase activity”.

Values taken from patent US6617497B1, “Cytokinin oxidase” (The Curators of the University of Missouri, priority 1997, dated 2003).
